Measured values reported in publication PMC3720256.

Experiments:
Experiment in all cases: EMSA
Ryp2;Ryp3 = target: T1, Ryp2;Ryp3 (Histoplasma capsulatum …, UniProt B2CQK0;B2CQK1 1-404;1-373, |); settings: protein: ivt;ivt; tags: C-terminal TEV site-6xHis;C-terminal TEV site-6xHis; copies: 1;1; label: 5'-IRDye800 (Fwd strand); blunt
T1 sequence 1: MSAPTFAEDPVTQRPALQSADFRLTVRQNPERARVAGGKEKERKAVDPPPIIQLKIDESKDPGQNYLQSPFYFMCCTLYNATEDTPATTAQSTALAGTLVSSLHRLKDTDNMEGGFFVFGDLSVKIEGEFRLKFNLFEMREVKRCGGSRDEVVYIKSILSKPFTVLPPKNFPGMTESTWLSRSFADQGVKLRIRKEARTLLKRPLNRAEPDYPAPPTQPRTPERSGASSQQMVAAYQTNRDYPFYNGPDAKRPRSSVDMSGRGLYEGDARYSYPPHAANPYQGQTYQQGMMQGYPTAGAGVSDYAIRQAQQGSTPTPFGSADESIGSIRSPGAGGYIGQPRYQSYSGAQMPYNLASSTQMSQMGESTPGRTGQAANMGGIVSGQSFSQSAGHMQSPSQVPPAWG
T1 sequence 2: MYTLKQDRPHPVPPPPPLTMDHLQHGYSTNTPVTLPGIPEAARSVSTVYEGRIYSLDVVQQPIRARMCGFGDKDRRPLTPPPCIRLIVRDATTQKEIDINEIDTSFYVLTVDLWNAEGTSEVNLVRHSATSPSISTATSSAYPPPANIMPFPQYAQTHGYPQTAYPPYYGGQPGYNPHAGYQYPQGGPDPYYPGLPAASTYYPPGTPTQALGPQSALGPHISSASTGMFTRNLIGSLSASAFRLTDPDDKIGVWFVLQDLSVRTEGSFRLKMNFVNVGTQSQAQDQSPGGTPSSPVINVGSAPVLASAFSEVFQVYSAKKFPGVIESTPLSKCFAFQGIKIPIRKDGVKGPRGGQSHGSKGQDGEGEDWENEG

Ryp1(N) = Ryp1(N) (Histoplasma capsulatum G217B, UniProt A9QXX8 1-267); settings: protein: ivt; tags: C-terminal TEV site-6xHis; label: 5'-IRDye800 (Fwd strand); blunt
Ryp1 = Ryp1 (Histoplasma capsulatum G217B, UniProt A9QXX8 1-487); settings: protein: ivt; tags: C-terminal TEV site-6xHis; label: 5'-IRDye800 (Fwd strand); blunt

B1: CBP1 promoter Motif B probe (dsDNA)
DNA 1: ATCAGGCGTCCGATCAGGTGATTGCTTTTAACCTTGGGATCCAGAGATCTCTCTATCTTT
DNA 2: AAAGATAGAGAGATCTCTGGATCCCAAGGTTAAAAGCAATCACCTGATCGGACGCCTGAT
- binding result (Ryp2;Ryp3): binds

B2: CBP1 promoter Motif A probe (dsDNA)
DNA 1: TAATGGTTCCAGATTGAGTTTCGTTTAAAGTTCACAACTCAATTCGGCAGCTCCGCTGCA
DNA 2: TGCAGCGGAGCTGCCGAATTGAGTTGTGAACTTTAAACGAAACTCAATCTGGAACCATTA
- binding result (Ryp1(N)): binds
- binding result (Ryp1): binds
